{"source": "patent US10245299B2", "about": "“Autoassembling peptides for the treatment of pulmonary bulla” (3-D MATRIX, LTD., priority 2014, dated 2019)", "type_in_all_cases": "physicochemical", "key": {"[1]": {"assay": "Appearance of 1.5% peptide solutions with various salts at room temperature", "settings": "for Appearance: IEIK13 solution, room temperature", "description": "The effect of salt ionic strength level on the properties of peptide solutions was evaluated to identify optimized salt ionic strength levels for the peptides as described herein. Increasing the salt ionic strength level of PuraMatrix® and other peptides may generally improve its function and mechanical strength for various clinical applications. To adjust the salt ionic strength of the peptide solutions by way of example, various salt buffer solutions including NaCl, KCl, MgCl2, CaCl2 and DPBS (10×) were added to 2 mL of 1.5% peptide solutions."}, "[2]": {"assay": "Rheological properties of pH adjusted peptide solutions and hydrogels", "settings": "KLD12 1%, IEIK13 1%, PuraMatrix® 1% and 2.5%", "description": "Based on the visual observation of the effect of pH level on the properties of the peptide solutions, the effect on the rheological properties of the peptide solutions after adjusting their pH level to 3.4 (PuraMatrix® and KLD12) or 3.7 (IEIK13) was evaluated. If the pH levels of peptide solutions are higher than 3.5 (PuraMatrix® and KLD12) or 3.7 (IEIK13), the peptide solution began phase separation becoming cloudy. The rheological properties of PuraMatrix®, KLD12 and IEIK13 solutions were higher at pH 3.4. The results are shown in FIG. 2 for KLD12 1%, FIG. 3 for IEIK13 1%, and FIGS. 4-5 for PuraMatrix® 1% and 2.5%, respectively. Stress sweep tests were performed at 10 rad/s. Frequency sweep tests were performed at 1 Pa.\nBased on the results of the effect on the rheological properties of the peptide solutions after adjusting their pH level to 3.4 (PuraMatrix® and KLD12) or 3.7 (IEIK13), the effect on the rheological properties of the peptide solutions at various pH levels was evaluated. […] The rheological properties of peptides were evaluated at various concentrations using a rheometer (DHR-1, TA Instruments) with 20 mm plates. The results are shown in FIG. 6A for PuraMatrix® 2.5% solution and FIG. 6B for IEIK13 1.5% solution, respectively. Frequency sweep tests were performed from 1 rad/sec to 10 rad/sec at 1 Pa and the storage modulus at 1 rad/sec was selected for data.\nBased on the results of the effect on the rheological properties of the peptide solutions after adjusting their pH level, the effect on the rheological properties of the peptide hydrogels at various pH after DMEM treatment was evaluated and compared to the effect on the rheological properties of the peptide solutions at various pH before DMEM treatment. […] The results are shown in FIGS. 7A-7B for PuraMatrix® and FIGS. 8A-8B for IEIK (SEQ ID NO: 5), respectively. Frequency sweep tests were performed from 1 rad/sec to 10 rad/sec at 1 Pa and the storage modulus at 1 rad/sec was selected for data."}, "[3]": {"assay": "Gelation kinetics of pH adjusted peptides, time sweep with DMEM", "description": "The effect of pH level on the properties of gelation kinetics was evaluated to identify optimized pH levels for the peptides as described herein. Fast gelation kinetics of PuraMatrix® and other peptides within body fluid may generally improve its function and response time for various clinical applications. The pH level may impart response time to begin gelation when treated with simulated body fluid including but not limited to DMEM. […] A fast response time of PuraMatrix® and other peptides within body fluid may generally improve its function and response time for various clinical applications.\n(§1) Time sweep tests were performed at 1 rad/sec and at 1 Pa with 20 mm plates and 500 μm gap distance. During time sweep test of PuraMatrix® 2.5% solution, DMEM was added into the chamber surrounding the measuring plates to soak PuraMatrix® solution at 0 time point. The results are shown in FIG. 9A for PuraMatrix® 2.5% solution.\nas §1, with “IEIK13 1.5%” for “PuraMatrix® 2.5%”, “IEIK13 1.5%” for “PuraMatrix®”, “point and continuously data was recorded.” for “point.”, “9B” for “9A”"}}}
{"substance": "Ile-Glu-Ile-Lys-Ile-Glu-Ile-Lys-Ile-Glu-Ile-Lys-Ile [IEIK13]", "values": [{"measurement": "Appearance", "setting": "[1]; conc. 1.16%, KCl 0.045 M, ionic strength 0.045 M", "value": "Cloudy, phase-separated"}, {"measurement": "Appearance", "setting": "[1]; conc. 1.2%, KCl 0.04 M, ionic strength 0.04 M", "value": "Slightly cloudy, brittle"}, {"measurement": "Appearance", "setting": "[1]; conc. 1.2%, NaCl 0.04 M, ionic strength 0.04 M", "value": "Cloudy, phase-separated"}, {"measurement": "Appearance", "setting": "[1]; conc. 1.24%, KCl 0.035 M, ionic strength 0.035 M", "value": "Slightly cloudy, brittle gel"}, {"measurement": "Appearance", "setting": "[1]; conc. 1.24%, NaCl 0.035 M, ionic strength 0.035 M", "value": "Slightly cloudy, brittle gel"}, {"measurement": "Appearance", "setting": "[1]; conc. 1.27%, KCl 0.03 M, ionic strength 0.03 M", "value": "Clear, thick, stiffer gel"}, {"measurement": "Appearance", "setting": "[1]; conc. 1.27%, NaCl 0.03 M, ionic strength 0.03 M", "value": "Slightly cloudy, thick, stiffer gel"}, {"measurement": "Appearance", "setting": "[1]; conc. 1.31%, KCl 0.025 M, ionic strength 0.025 M", "value": "Clear, thick, stiffer gel"}, {"measurement": "Appearance", "setting": "[1]; conc. 1.31%, NaCl 0.025 M, ionic strength 0.025 M", "value": "Clear, thick, stiffer gel"}, {"measurement": "Appearance", "setting": "[1]; conc. 1.35%, KCl 0.02 M, ionic strength 0.02 M", "value": "Clear, thick, stiffer gel"}, {"measurement": "Appearance", "setting": "[1]; conc. 1.35%, NaCl 0.02 M, ionic strength 0.02 M", "value": "Clear, thick, stiffer gel"}, {"measurement": "Appearance", "setting": "[1]; conc. 1.36%, CaCl2 0.0183 M, ionic strength 0.055 M", "value": "Cloudy, phase-separated"}, {"measurement": "Appearance", "setting": "[1]; conc. 1.36%, MgCl2 0.0183 M, ionic strength 0.055 M", "value": "Cloudy, phase-separated"}, {"measurement": "Appearance", "setting": "[1]; conc. 1.37%, CaCl2 0.0167 M, ionic strength 0.05 M", "value": "Slightly cloudy, brittle gel"}, {"measurement": "Appearance", "setting": "[1]; conc. 1.37%, MgCl2 0.0167 M, ionic strength 0.05 M", "value": "Slightly cloudy, brittle gel"}, {"measurement": "Appearance", "setting": "[1]; conc. 1.39%, CaCl2 0.015 M, ionic strength 0.045 M", "value": "Slightly cloudy, thick, stiffer gel"}, {"measurement": "Appearance", "setting": "[1]; conc. 1.39%, KCl 0.015 M, ionic strength 0.015 M", "value": "Clear, thick, stiffer gel"}, {"measurement": "Appearance", "setting": "[1]; conc. 1.39%, MgCl2 0.015 M, ionic strength 0.045 M", "value": "Slightly cloudy, stiffer gel"}, {"measurement": "Appearance", "setting": "[1]; conc. 1.39%, NaCl 0.015 M, ionic strength 0.015 M", "value": "Clear, thick, stiffer gel"}, {"measurement": "Appearance", "setting": "[1]; conc. 1.40%, CaCl2 0.0133 M, ionic strength 0.04 M", "value": "Slightly cloudy, thick, stiffer gel"}, {"measurement": "Appearance", "setting": "[1]; conc. 1.40%, MgCl2 0.0133 M, ionic strength 0.04 M", "value": "Slightly cloudy, thick, stiffer gel"}, {"measurement": "Appearance", "setting": "[1]; conc. 1.41%, CaCl2 0.0117 M, ionic strength 0.035 M", "value": "Clear, thick, stiffer gel"}, {"measurement": "Appearance", "setting": "[1]; conc. 1.41%, MgCl2 0.0117 M, ionic strength 0.035 M", "value": "Clear, thick, stiffer gel"}, {"measurement": "Appearance", "setting": "[1]; conc. 1.43%, CaCl2 0.01 M, ionic strength 0.03 M", "value": "Clear, thick, stiffer gel"}, {"measurement": "Appearance", "setting": "[1]; conc. 1.43%, KCl 0.01 M, ionic strength 0.01 M", "value": "Clear, thick, stiffer gel"}, {"measurement": "Appearance", "setting": "[1]; conc. 1.43%, MgCl2 0.01 M, ionic strength 0.03 M", "value": "Clear, thick, stiffer gel"}, {"measurement": "Appearance", "setting": "[1]; conc. 1.43%, NaCl 0.01 M, ionic strength 0.01 M", "value": "Clear, thick, stiffer gel"}, {"measurement": "Appearance", "setting": "[1]; conc. 1.44%, CaCl2 0.0083 M, ionic strength 0.025 M", "value": "Clear, thick, stiffer gel"}, {"measurement": "Appearance", "setting": "[1]; conc. 1.44%, MgCl2 0.0083 M, ionic strength 0.025 M", "value": "Clear, thick, stiffer gel"}, {"measurement": "Appearance", "setting": "[1]; conc. 1.45%, CaCl2 0.0067 M, ionic strength 0.02 M", "value": "Clear, thick, stiffer gel"}, {"measurement": "Appearance", "setting": "[1]; conc. 1.45%, MgCl2 0.0067 M, ionic strength 0.02 M", "value": "Clear, thick, stiffer gel"}, {"measurement": "Appearance", "setting": "[1]; conc. 1.46%, CaCl2 0.005 M, ionic strength 0.015 M", "value": "Clear, thick, stiffer gel"}, {"measurement": "Appearance", "setting": "[1]; conc. 1.46%, KCl 0.005 M, ionic strength 0.005 M", "value": "Clear, thick, stiffer gel"}, {"measurement": "Appearance", "setting": "[1]; conc. 1.46%, MgCl2 0.005 M, ionic strength 0.015 M", "value": "Clear, thick, stiffer gel"}, {"measurement": "Appearance", "setting": "[1]; conc. 1.46%, NaCl 0.005 M, ionic strength 0.005 M", "value": "Clear, thick, stiffer gel"}, {"measurement": "Appearance", "setting": "[1]; conc. 1.5%, CaCl2 0 M, ionic strength 0 M", "value": "Clear, thick gel"}, {"measurement": "Appearance", "setting": "[1]; conc. 1.5%, KCl 0 M, ionic strength 0 M", "value": "Clear, thick gel"}, {"measurement": "Appearance", "setting": "[1]; conc. 1.5%, MgCl2 0 M, ionic strength 0 M", "value": "Clear, thick gel"}, {"measurement": "Appearance", "setting": "[1]; conc. 1.5%, NaCl 0 M, ionic strength 0 M", "value": "Clear, thick gel"}, {"measurement": "salt ionic strength increase that did not change the clear color of the solution (apparent stiffness increased)", "setting": "[1]; depending on different salts, 1.5% peptide solutions", "value": "0.025˜0.035 M"}, {"measurement": "rheological properties of solutions at pH 3.4", "setting": "[2]", "value": "higher"}, {"measurement": "storage modulus response on DMEM addition", "setting": "[3]; with pH adjustment, PuraMatrix® 2.5%, IEIK13 1.5% solution", "value": "immediate storage modulus increase"}, {"measurement": "storage modulus response on DMEM addition", "setting": "[3]; without pH adjustment", "value": "immediate storage modulus increase"}]}
